Experimental data as given in the Immune Epitope Database (IEDB).

Experiments:
HLA-A*02:01 [1] = assay: IEDB peptide-MHC binding, purified MHC/direct/fluorescence; filed as Kd, often an IC50 or EC50 that approximates it; ≥ and ≤ were set here for values at or beyond the usual limits of such assays
HLA-A*02:03 = assay: as above
HLA-A*02:11 = assay: as above
HLA-A*02:12 = assay: as above
HLA-A*02:16 = assay: as above
HLA-A*02:19 = assay: as above
HLA-A*03:01 [2] = assay: as above
HLA-A*23:01 = assay: as above; settings: source organism: Salmonella enterica subsp. enterica serovar Typhimurium str. LT2
HLA-A*24:03 = assay: as above
HLA-A*26:01 = assay: as above
HLA-A*29:02 = assay: as above
HLA-A*68:02 = assay: as above
HLA-A*69:01 [3] = assay: as above; settings: source organism: Salmonella enterica subsp. enterica serovar Typhimurium str. LT2
HLA-B*15:01 [4] = assay: as above
HLA-B*15:17 = assay: as above; settings: source organism: Salmonella enterica subsp. enterica serovar Typhimurium str. LT2
HLA-B*18:01 = assay: as above
HLA-B*27:03 [5] = assay: as above
HLA-B*46:01 [6] = assay: as above
HLA-B*51:01 [7] = assay: as above
HLA-B*57:01 [8] = assay: as above; settings: source organism: Salmonella enterica subsp. enterica serovar Typhimurium str. LT2
HLA-C*03:03 = assay: as above
HLA-B*39:01 [9] = assay: as above; settings: source organism: Mycobacterium tuberculosis str. Haarlem
HLA-C*08:02 = assay: as above
HLA-A*01:01 [10] = assay: IEDB peptide-MHC binding, purified MHC/competitive/fluorescence; filed as Kd, often an IC50 or EC50 that approximates it; ≥ and ≤ were set here for values at or beyond the usual limits of such assays; settings: source organism: Yersinia pestis Nepal516
HLA-A*02:01 [11] = assay: as above
HLA-B*51:01 [12] = assay: as above
HLA-B*58:01 = assay: as above; settings: source organism: Yersinia pestis Nepal516
HLA-A*03:01 [13] = assay: as above; settings: source organism: Salmonella enterica subsp. enterica serovar Typhi
HLA-A*31:01 = assay: as above; settings: source organism: Salmonella enterica subsp. enterica serovar Typhi
HLA-A*68:23 = assay: as above; settings: source organism: Salmonella enterica subsp. enterica serovar Typhi
HLA-B*15:01 [14] = assay: as above; settings: source organism: Salmonella enterica subsp. enterica serovar Typhi
HLA-B*15:42 = assay: as above
HLA-B*45:06 = assay: as above
HLA-B*83:01 = assay: as above; settings: source organism: Salmonella enterica subsp. enterica serovar Typhi
HLA-C*04:01 = assay: as above
HLA-B*07:02 = assay: IEDB peptide-MHC binding, purified MHC/direct/fluorescence; filed as Kd, often an IC50 or EC50 that approximates it; ≥ and ≤ were set here for values at or beyond the usual limits of such assays; settings: source organism: Orthohantavirus hantanense
HLA-A*01:01 [15] = assay: IEDB peptide-MHC binding, purified MHC/competitive/fluorescence; ≥ and ≤ were set here for values at or beyond the usual limits of such assays; settings: source organism: Sudan ebolavirus
HLA-A*02:01 [16] = assay: as above; settings: source organism: Sudan ebolavirus
HLA-B*15:01 [17] = assay: as above; settings: source organism: Sudan ebolavirus
HLA-A*69:01 [18] = assay: IEDB peptide-MHC binding, purified MHC/competitive/fluorescence; filed as Kd, often an IC50 or EC50 that approximates it; ≥ and ≤ were set here for values at or beyond the usual limits of such assays; settings: source organism: Sudan ebolavirus
HLA-B*27:03 [19] = assay: as above; settings: source organism: Sudan ebolavirus
HLA-B*39:01 [20] = assay: as above; settings: source organism: Sudan ebolavirus
HLA-B*46:01 [21] = assay: as above; settings: source organism: Sudan ebolavirus
HLA-B*57:01 [22] = assay: as above; settings: source organism: Sudan ebolavirus
[23] = source organism: Salmonella enterica subsp. enterica serovar Typhimurium str. LT2
[24] = source organism: Mycobacterium tuberculosis str. Haarlem
[25] = source organism: Yersinia pestis Nepal516
[26] = source organism: Salmonella enterica subsp. enterica serovar Typhi
[27] = source organism: Hantaan virus 76-118
[28] = source organism: Sudan ebolavirus

FKYDSTKPL gave a Kd (HLA-A*02:01 [1]; [23]) of no less than 20 µM, a Kd (HLA-A*02:03; [23]) of no less than 20 µM and a Kd (HLA-A*02:11; [23]) of no less than 20 µM. The Kd (HLA-A*02:12; [23]) was no less than 20 µM, the Kd (HLA-A*02:16; [23]) was no less than 20 µM and the Kd (HLA-A*02:19; [23]) was no less than 20 µM. The Kd (HLA-A*03:01 [2]; [23]) was no less than 20 µM, the Kd (HLA-A*23:01) was no less than 20 µM and the Kd (HLA-A*24:03; [23]) was no less than 20 µM. The Kd (HLA-A*26:01; [23]) was no less than 20 µM, the Kd (HLA-A*29:02; [23]) was no less than 20 µM and the Kd (HLA-A*68:02; [23]) was no less than 20 µM. For the same sequence, the Kd (HLA-A*69:01 [3]) was no less than 20 µM, the Kd (HLA-B*15:01 [4]; [23]) was no less than 20 µM and the Kd (HLA-B*15:17) was no less than 20 µM. The Kd (HLA-B*18:01; [23]) was no less than 20 µM, the Kd (HLA-B*27:03 [5]; [23]) was no less than 20 µM and the Kd (HLA-B*46:01 [6]; [23]) was no less than 20 µM. For the same sequence, the Kd (HLA-B*51:01 [7]; [23]) was no less than 20 µM and the Kd (HLA-B*57:01 [8]) was no less than 20 µM.

LAYARGQAM showed a Kd (HLA-C*03:03; source organism: Human herpesvirus 4 strain B95-8) of no more than 0.001 µM.

In the case of MAVTAAPYI, the Kd (HLA-A*02:01 [1]; [24]) is reported as no less than 20 µM, the Kd (HLA-A*02:03; [24]) is reported as no less than 20 µM and the Kd (HLA-A*02:11; [24]) is reported as no less than 20 µM. For the same sequence, the Kd (HLA-A*02:12; [24]) was no less than 20 µM, the Kd (HLA-A*02:16; [24]) was no less than 20 µM and the Kd (HLA-A*02:19; [24]) was no less than 20 µM. It also gave a Kd (HLA-A*03:01 [2]; [24]) of no less than 20 µM, a Kd (HLA-A*24:03; [24]) of no less than 20 µM and a Kd (HLA-A*26:01; [24]) of no less than 20 µM. The Kd (HLA-A*29:02; [24]) was no less than 20 µM, the Kd (HLA-B*15:01 [4]; [24]) was no less than 20 µM and the Kd (HLA-B*18:01; [24]) was no less than 20 µM. For the same sequence, the Kd (HLA-B*27:03 [5]; [24]) was no less than 20 µM, the Kd (HLA-B*39:01 [9]) was no less than 20 µM and the Kd (HLA-B*46:01 [6]; [24]) was no less than 20 µM. For the same sequence, the Kd (HLA-B*51:01 [7]; [24]) was 0.103 µM.

Work on MTSELAALI yielded a Kd (HLA-C*08:02; [25]) of 0.415 µM, a Kd (HLA-A*01:01 [10]) of no less than 20 µM and a Kd (HLA-A*02:01 [11]; [25]) of 0.0073 µM. For the same sequence, the Kd (HLA-B*51:01 [12]; [25]) was no less than 20 µM and the Kd (HLA-B*58:01) was 0.0225 µM.

STFDLYVYR was tested, and the Kd (HLA-A*03:01 [13]) was 3.21 µM, the Kd (HLA-A*31:01) was 0.0243 µM and the Kd (HLA-A*68:23) was 0.0139 µM. It also gave a Kd (HLA-B*15:01 [14]) of no less than 20 µM, a Kd (HLA-B*15:42; [26]) of no less than 5 µM and a Kd (HLA-B*45:06; [26]) of no less than 5 µM. The Kd (HLA-B*83:01) was no less than 5 µM and the Kd (HLA-C*04:01; [26]) was no less than 5 µM.

TPGRYRTAV showed a Kd (HLA-B*07:02) of no more than 0.001 µM, a Kd (HLA-B*51:01 [7]; source organism: Orthohantavirus hantanense) of no less than 20 µM and a Kd (HLA-B*15:42; [27]) of no less than 5 µM. It also gave a Kd (HLA-B*45:06; [27]) of no less than 5 µM and a Kd (HLA-C*04:01; [27]) of no less than 5 µM.

YISPIFIPM gave a Kd (HLA-C*03:03; source organism: Rickettsia sibirica 246) of no more than 0.001 µM.

YTENTSSYY gave an IC50 (HLA-A*01:01 [15]) of 0.927 µM, an IC50 (HLA-A*02:01 [16]) of no less than 213 µM and an IC50 (HLA-B*15:01 [17]) of 23.1 µM. For the same sequence, the Kd (HLA-A*02:03; [28]) was no less than 20 µM, the Kd (HLA-A*02:11; [28]) was no less than 20 µM and the Kd (HLA-A*02:12; [28]) was no less than 20 µM. It also gave a Kd (HLA-A*02:16; [28]) of no less than 20 µM, a Kd (HLA-A*02:19; [28]) of no less than 20 µM and a Kd (HLA-A*03:01 [2]; [28]) of no less than 20 µM. The Kd (HLA-A*24:03; [28]) was no less than 20 µM, the Kd (HLA-A*26:01; source organism: Sudan virus - Boniface, Sudan,1976) was 0.007 µM and the Kd (HLA-A*68:02; [28]) was no less than 20 µM. It also gave a Kd (HLA-C*08:02; [28]) of no less than 20 µM, a Kd (HLA-A*02:01 [11]; [28]) of no less than 20 µM and a Kd (HLA-A*69:01 [18]) of no less than 20 µM. It also gave a Kd (HLA-B*27:03 [19]) of no less than 20 µM, a Kd (HLA-B*39:01 [20]) of no less than 20 µM and a Kd (HLA-B*46:01 [21]) of no less than 20 µM. The Kd (HLA-B*51:01 [12]; [28]) was no less than 20 µM and the Kd (HLA-B*57:01 [22]) was no less than 20 µM.
